According to patent US20260224624A1:

Biological target: recombinant human TGFβ1 (rhTGFβ) (human) (UniProt P01137)
Experiment: cell-based or functional assay

Sequence of UniProt P01137 (P01137 279-390 limits assumed): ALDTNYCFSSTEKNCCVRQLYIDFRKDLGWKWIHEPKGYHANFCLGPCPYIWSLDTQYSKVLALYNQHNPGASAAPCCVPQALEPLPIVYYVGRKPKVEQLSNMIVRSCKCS

expansion of JK59 SwR-STEAP1 CAR T cells cultured 21 days with rhTGFβ: 15 fold | expansion of JK69 SwR-STEAP1 CAR T cells cultured 21 days with rhTGFβ: 33 fold | phosphorylation level of STAT5 (pY694) in CD3+ JK59 CAR T cells treated with rhTGFβ at 10 ng/ml for 15 min, flow cytometry: 60%
Substance: TGFβ-switch receptor (SwR): extracellular domains of TGFβRI and TGFβRII fused to the transmembrane and intracellular domains of the IL-2/IL-15 receptor β and γ chains
